Consider one molecule from patent US7220822 (OHIO STATE UNIVERSITY, dated 2007).

Broadly, the Kd is the constant that tells how readily two partners part at equilibrium. Lower therefore signals higher affinity.

The test has as its target T1, CD80-Ig (extracellular domain of CD80 fused with the constant region of mouse IgG1 heavy chain) (mouse).
T1 construct: extracellular domain; also called B7-1
Description: SPR (BIACORE), direct binding to immobilized CD80-Ig, linear regression plot. As to the method: Binding experiments were performed by surface plasmon resonance (SPR) on an instrument sold under the trademark BIACORE™ from Pharmacia Biosensor (Uppasala, Sweden). All experiments were performed at 37° C. using HBS-EP buffer (25 mM Hepes, pH7.4, […], 3.4 mM EDTA and, 005% surfactant P20) supplied by Pharmacia Biosensor.
CD80-Ig (extracellular domain of CD80 fused with the constant region of mouse IgG1 heavy chain) at 35 µg/ml in 10 mM sodium acetate buffer, pH 4.2, was coupled to a research grade CM 5 sensor chip using a standard amine coupling procedure with the following modifications (38). To reduce the immobilization level of the ligand, the surface was activated for 3 (instead of 7) minutes with N-hydroxysuccinamide and […]. […] Following coupling, noncovalently bound ligand was removed by washing twice with 5 mM NaOH.
Data for both k_a and k_d are quite consistent over the entire range of concentrations used. The difference between experimental and calculated data for both EL CD28 and RI CD28 peptide mimetics estimated by Chi^2 value is low being close to the noise level of the instrument. A linear regression plot of the rate of change in the response against response units was plotted using these values of k_a and k_d for each CD28 peptide analyte.

For the molecule H-KIEFMYPPPYLDNERSNGTI-OH (also called Free L peptide) [L-CD28 (free L CD28 peptide mimetic)], the dissociation constant Kd came out at 2.44 µM.
